Experimental data: US20210070882A1

Target: human CD19 (human) (UniProt P15391)
Experiment: cell-based or functional assay

Sequence of human CD19 (human) (P15391 20-556): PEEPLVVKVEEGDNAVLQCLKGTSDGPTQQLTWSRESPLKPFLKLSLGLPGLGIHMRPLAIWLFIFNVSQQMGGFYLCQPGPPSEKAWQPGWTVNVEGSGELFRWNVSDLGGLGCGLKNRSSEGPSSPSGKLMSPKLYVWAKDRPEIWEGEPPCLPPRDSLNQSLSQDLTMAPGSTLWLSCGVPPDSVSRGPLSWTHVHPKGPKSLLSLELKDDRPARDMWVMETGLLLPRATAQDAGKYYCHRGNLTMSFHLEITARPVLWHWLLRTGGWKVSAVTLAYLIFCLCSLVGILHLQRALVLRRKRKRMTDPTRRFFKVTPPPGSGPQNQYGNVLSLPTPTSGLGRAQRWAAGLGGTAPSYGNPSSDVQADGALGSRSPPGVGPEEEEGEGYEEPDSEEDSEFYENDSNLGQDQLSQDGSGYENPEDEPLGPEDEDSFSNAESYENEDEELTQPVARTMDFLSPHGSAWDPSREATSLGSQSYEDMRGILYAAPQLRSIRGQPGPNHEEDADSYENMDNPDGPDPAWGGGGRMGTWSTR

T cell activation EC50 upon Z-138 lysis, CD25/CD4: 3.7 pM | T cell activation EC50 upon Z-138 lysis, CD25/CD8: 4.5 pM | T cell activation EC50 upon Z-138 lysis, CD69/CD4: 2.3 pM | T cell activation EC50 upon Z-138 lysis, CD69/CD8: 2.4 pM | Tumor cell lysis Z-138 cells (21 h), EC50: 0.26 ng/mL | Tumor cell lysis Z-138 cells (21 h), EC50 (pM): 4.8 pM
Substance: Blinatumomab (bispecific antibody)
